The target in assay [1] is T1, human fibulin-3 (human, UniProt Q12805 18-493, limits assumed).
T1 construct: Purified human fibulin-3 in Western blot, dot blot and BIACORE (there pretreated with 10 mM DTT to dissociate multimers); The same entry is used for fibulin-3 secreted by transfected CNS1 cells and for native fibulin-3 in human tissue sections; also called Fib3; EFEMP1 gene product
T1 sequence (looked up): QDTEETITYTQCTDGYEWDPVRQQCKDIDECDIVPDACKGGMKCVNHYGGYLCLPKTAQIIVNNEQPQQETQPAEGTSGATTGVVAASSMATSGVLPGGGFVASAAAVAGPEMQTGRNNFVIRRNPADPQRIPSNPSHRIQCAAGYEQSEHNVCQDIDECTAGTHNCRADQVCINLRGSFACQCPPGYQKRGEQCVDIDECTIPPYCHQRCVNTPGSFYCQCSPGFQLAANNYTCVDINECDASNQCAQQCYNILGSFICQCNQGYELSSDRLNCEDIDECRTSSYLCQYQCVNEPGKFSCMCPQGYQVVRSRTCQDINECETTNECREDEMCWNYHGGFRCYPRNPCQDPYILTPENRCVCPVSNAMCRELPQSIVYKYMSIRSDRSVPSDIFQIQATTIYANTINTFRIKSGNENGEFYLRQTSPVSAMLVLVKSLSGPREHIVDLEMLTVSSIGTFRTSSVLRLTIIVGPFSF
Briefly: method not stated there (summary of the tests). How it is done: (§1) Experiments were performed in duplicate and fit to a 1:1 binding interaction model.

Assay [2] deals with T1, human fibulin-3. Briefly: SPR (BIACORE), antibody immobilized on the chip, purified human fibulin-3 pretreated with 10 mM DTT, duplicate, 1:1 model. The protocol:
as §1
A general note: Surface plasmon resonance follows binding to a sensor surface in real time, without labels.

Assay [3] has as its target T1, human fibulin-3. Kind of assay: BIACORE, antibody immobilised on the chip, purified human fibulin-3 pretreated with 10 mM DTT as analyte (200-600 nM), 1:1 model; first of two runs (upper panel). The protocol:
as §1

The target in assay [4] is T1, human fibulin-3. Briefly: BIACORE, antibody immobilised on the chip, purified human fibulin-3 pretreated with 10 mM DTT as analyte (200-600 nM), 1:1 model; second of two runs (lower panel). The protocol: as §1

What is called Kd is the equilibrium constant for the complex coming apart.

B1: mAb428.2.3C11.H11.G3 (antibody, IgG1, V domains shown)
VH: QIQLVQSGPELKKPGETVKISCKASGYSFTTYGMSWVKQAPGKGLKWMGWINTYSGVPTYADDFKGRFAFFLETSASTAYLQINNLKNEDTATYFCARWVDYWGQGTTLTVSS
VL: DIKMTQSPSSMYASLGERVTITCKASQDIKSYLSWHQQKPWKSPKTLIYYATSLADGVPSRFSGSGSGQDYSLTISSLESDDTATYYCLQHGKSPYTFGGGTKLEIK
notes: also called mAb428.3C11; mAb428.3C11.H11.G3
With B1, the Kd with human fibulin-3 [1] was 5 nM; in the assay with human fibulin-3 [2] it was about 4.5 nM; with human fibulin-3 [3], 6.97 nM; with human fibulin-3 [4], 2.03 nM.

The values above are taken from US20190177426A1 (BRIGHAM AND WOMEN S HOSPITAL, published 2019).
